Data set [1] has as its system CCND1 and CCNE1 expression. Briefly: CCND1 and CCNE1 expression in breast cancer cells. The class given is cell-based. As to conditions: stable MDA-MB-231 cell lines, shRNA-resistant cDNA. From the text:
We first established stable MDA-MB-231 cell lines that express similar levels of the mutant or the wild-type full-length NPAC from cDNAs introduced with silent mutations and resistant to NPAC shRNA (data not shown). […] Thus, mutation of the LSD2-interacting residues F218, L219 and L291 of NPAC can disrupt LSD2 and NPAC functions in vivo.
We next examined if it is possible to use a small molecule to manipulate the interaction between NPAC and LSD2, thus affecting target gene expression. We have shown that a short mutant NPAC peptide (residues 214-225) can interact with LSD2 with high affinity, however, lost its cofactor activity. NPAC214-225.F217A is expected to be able to competitive inhibit the interaction between endogenous NPAC and LSD2, without stimulating LSD2 demethylase activity (FIG. 25A, right). […] Thus, unable to stimulate the histone demethylase activity of endogenous LSD2, this mutant peptide is a potent inhibitor of LSD2 function by competitively inhibiting LSD2 binding by endogenous NPAC.

The target of a further data set is T1, LSD2 (Homo sapiens, UniProt Q8NB78).
T1 sequence (Q8NB78 1-822): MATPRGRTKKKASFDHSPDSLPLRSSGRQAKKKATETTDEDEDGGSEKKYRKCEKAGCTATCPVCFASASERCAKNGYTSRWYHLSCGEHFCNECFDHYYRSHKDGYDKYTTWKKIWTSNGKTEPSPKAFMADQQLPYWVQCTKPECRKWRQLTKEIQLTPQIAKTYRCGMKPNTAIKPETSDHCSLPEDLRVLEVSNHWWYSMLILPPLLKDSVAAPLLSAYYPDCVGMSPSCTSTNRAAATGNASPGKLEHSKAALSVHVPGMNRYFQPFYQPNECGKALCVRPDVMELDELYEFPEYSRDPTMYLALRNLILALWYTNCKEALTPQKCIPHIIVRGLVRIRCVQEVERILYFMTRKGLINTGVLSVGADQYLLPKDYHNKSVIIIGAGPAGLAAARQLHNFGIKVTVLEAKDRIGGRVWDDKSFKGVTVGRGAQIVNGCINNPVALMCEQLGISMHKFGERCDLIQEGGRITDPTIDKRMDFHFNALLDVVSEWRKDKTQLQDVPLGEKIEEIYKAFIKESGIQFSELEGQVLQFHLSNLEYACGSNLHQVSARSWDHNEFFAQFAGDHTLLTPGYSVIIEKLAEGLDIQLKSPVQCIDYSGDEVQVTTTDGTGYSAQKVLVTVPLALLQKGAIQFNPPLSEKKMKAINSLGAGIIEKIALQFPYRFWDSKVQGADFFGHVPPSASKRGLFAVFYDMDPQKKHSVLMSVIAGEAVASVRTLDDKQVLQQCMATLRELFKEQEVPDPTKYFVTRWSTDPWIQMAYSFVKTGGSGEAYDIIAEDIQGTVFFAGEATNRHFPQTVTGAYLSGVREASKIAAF
The data set can be described thus: Immunofluorescence of histone methylation in cells coexpressing LSD2 and NPAC. It counts as cell-based. Details: expressed in transfected cells; host or cells: U2OS. As for the experimental part: FIG. 1A depicts a schematic of NPAC domain structure. AT, AT-hook motif. PWWP, Pro-Trp-Trp-Pro domain (SEQ ID NO: 63). […] Tandem affinity purified NPAC and LSD2 complexes were incubated with nucleosomes purified from HeLa, and analyzed by immunoblot using indicated antibodies. […] The amount of LSD2 enzyme and NPAC cofactor proteins used in each reaction is indicated. Demethylation was assessed by Immunoblot using indicated antibodies. […] Representatives with similar levels of GFP-LSD2 are shown. See also FIGS. 7A-7D.
FIG. 7A depicts the determination of the threshold dosage of purified LSD2 required for nucleosomal H3K4 demethylation. 2 μg of nucleosomes purified from HeLa were incubated with various amount of His-LSD2 proteins for 2 hours at 30° C. The demethylation reactions were analyzed by immunoblotting using indicated antibodies. […] 2 μg LSD1 in combination with 5 μg purified NPAC or CoREST protein was used for histone demethylase assays. […] Transfected cells are marked by arrows; cells shown significant reduction of H3K4me1 are marked by dotted circles. […] In contrast, coexpression of LSD2 and NPAC induces obvious global decrease of H3K4me1. […] FIG. 7D depicts immunofluorescence analyses of H3K9me2 demethylation in cells coexpressing LSD2 and full-length NPAC.

Another data set concerns the target T2, His-LSD2 (Homo sapiens, UniProt Q8NB78).
T2 construct: typically 0.5 μg full-length His-LSD2; made in house; host or cells: Sf9 insect cells
T2 sequence (Q8NB78 1-822): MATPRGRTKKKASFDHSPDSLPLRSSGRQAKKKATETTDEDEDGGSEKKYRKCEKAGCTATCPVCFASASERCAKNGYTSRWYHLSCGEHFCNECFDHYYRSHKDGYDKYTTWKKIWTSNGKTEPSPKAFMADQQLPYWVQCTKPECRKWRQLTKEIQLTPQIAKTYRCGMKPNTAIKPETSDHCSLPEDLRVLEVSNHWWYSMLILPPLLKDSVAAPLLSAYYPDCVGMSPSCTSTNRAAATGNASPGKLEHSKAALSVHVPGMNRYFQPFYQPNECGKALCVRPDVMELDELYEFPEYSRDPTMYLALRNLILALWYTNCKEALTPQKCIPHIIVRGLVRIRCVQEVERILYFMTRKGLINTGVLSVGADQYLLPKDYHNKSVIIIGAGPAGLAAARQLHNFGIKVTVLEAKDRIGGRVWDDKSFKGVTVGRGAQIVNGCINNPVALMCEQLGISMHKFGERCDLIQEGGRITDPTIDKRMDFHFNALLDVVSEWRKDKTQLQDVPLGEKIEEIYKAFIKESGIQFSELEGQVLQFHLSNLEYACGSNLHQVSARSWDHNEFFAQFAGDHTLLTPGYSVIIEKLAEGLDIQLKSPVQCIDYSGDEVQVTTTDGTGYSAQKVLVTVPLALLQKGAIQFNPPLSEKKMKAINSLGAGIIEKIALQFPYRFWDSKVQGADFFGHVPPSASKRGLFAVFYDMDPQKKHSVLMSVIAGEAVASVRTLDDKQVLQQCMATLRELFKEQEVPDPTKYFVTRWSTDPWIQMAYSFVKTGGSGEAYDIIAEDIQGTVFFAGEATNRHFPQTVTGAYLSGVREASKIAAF
The data set can be described thus: Nucleosome demethylation assay (NPAC cofactor activity for LSD2, immunoblot). The class given is biochemical. The note with it: for Cofactor activity: stimulation of LSD2 demethylation of nucleosomal H3K4me2: threshold dosage of His-LSD2, nucleosomes purified from HeLa. The procedure: For nucleosome demethylation assays, typically 0.5 μg full-length His-LSD2, 1 μg NPAC protein or peptides, and 2 μg nucleosomes purified from HeLa were used, and demethylation efficiency was analyzed by SDS-PAGE electrophoresis and immunoblot using methylation specific anti-histone H3 antibodies as previously described (Shi et al. 2004).

B1: NPAC: full-length human NPAC/GLYR1 (protein ID: Q49A26), recombinant, LSD2 cofactor (protein)
chain: MAAVSLRLGDLVWGKLGRYPPWPGKIVNPPKDLKKPRGKKCFFVKFFGTEDHAWIKVEQLKPYHAHKEEMIKINKGKRFQQAVDAVEEFLRRAKGKDQTSSHNSSDDKNRRNSSEERSRPNSGDEKRKLSLSEGKVKKNMGEGKKRVSSGSSERGSKSPLKRAQEQSPRKRGRPPKDEKDLTIPESSTVKGMMAGPMAAFKWQPTASEPVKDADPHFHHFLLSQTEKPAVCYQAITKKLKICEEETGSTSIQAADSTAVNGSITPTDKKIGFLGLGLMGSGIVSNLLKMGHTVTVWNRTAEKCDLFIQEGARLGRTPAEVVSTCDITFACVSDPKAAKDLVLGPSGVLQGIRPGKCYVDMSTVDADTVTELAQVIVSRGGRFLEAPVSGNQQLSNDGMLVILAAGDRGLYEDCSSCFQAMGKTSFFLGEVGNAAKMMLIVNMVQGSFMATIAEGLTLAHVTGQSQQTLLDILNQGQLASIFLDQKCQNILQGNFKPDFYLKYIQKDLRLAIALGDAVNHPTPMAAAANEVYKRAKALDQSDNDMSAVYRAYIH
Consider B1, for which the “Rescue of CCND1 and CCNE1 down regulation caused by NPAC shRNA” value in data set [1] is “prevents down regulation of CCND1 and CCNE1 by NPAC shRNA”. Besides, the “Change of H3K9me2 and other histone marks in cells” value with LSD2 (coexpression of NPAC and LSD2) is reported as “no detectable changes”. The “Depletion of di- and mono-methylated H3K4 in cells” value with LSD2 (coexpression of NPAC and LSD2 vs LSD2 alone, U2OS) was “much more pronounced depletion of di- and mono-methylated H3K4 in cells than expressing LSD2 alone”. The “Demethylase activity of NPAC itself” value with His-LSD2 (NPAC alone, without LSD2) is on record as “no demethylase activity”. Moreover, the “Cofactor activity: stimulation of LSD2 demethylation of nucleosomal H3K4me2” value with His-LSD2 (listed as His-NPAC) is given as “stimulated LSD2 activity in a dose-dependent manner”; with His-LSD2 (listed as wild-type NPAC), “robust activity”.

The values above are taken from patent publication US9745384B2, “Peptides useful for modulating histone demethylase function” (The Brigham and Women's Hospital, Inc., priority 2012, dated 2017).
